# B1: R107Q, Q93D82 (parent)
# chain: MSTAIVTNVKHFGGMGSALRLSEAGHTVACHDESFKQKDELEAFAETYPQLKPMSEQEPAELIEAVTSAYGQVDVLVSNDIFAPEFQPIDKYAVEDYRGAVEALQIRPFALVNAVASQMKKRKSGHIIFITSATPFGPWKELSTYTSARAGACTLANALSKELGEYNIPVFAIGPNYLHSEDSPYFYPTEPWKTNPEHVAHVKKVTALQRLGTQKELGELVAFLASGSCDYLTGQVFWLAGGFPMIERWPGMPE
# Variants of: B1
# Details: Rhizobium radiobacter; pH 7.7; Thermal; CD; Phosphate 5mM; structure 1PWX; whole UniProt chain shown
Variant,Tm,"change of melting temperature, mutant - wild type (higher = more stable)"
R107Q,65 °C,0 °C
M54F,63.5 °C,-1.5 °C
A83Q,65.5 °C,0.5 °C
A83N,63 °C,-2 °C
A83M,65.5 °C,0.5 °C
S143V,59.5 °C,-5.5 °C
N195H,64.5 °C,-0.5 °C
N195V,59 °C,-6 °C
S160A,64.5 °C,-0.5 °C
C229A,60.5 °C,-4.5 °C
Y70F,65.5 °C,0.5 °C
Q209H,58 °C,-7 °C
D182F,63 °C,-2 °C
G99A,66 °C,1 °C
G99H,65 °C,0 °C
G99R,55.5 °C,-9.5 °C
G99D,65 °C,0 °C
F136W,60.5 °C,-4.5 °C
S117K,65 °C,0 °C
S117A,63.5 °C,-1.5 °C

Variant,Tm,"change of melting temperature, mutant - wild type (higher = more stable)"
A103Y,60.5 °C,-4.5 °C
A103Q,61 °C,-4 °C
A93T,69.5 °C,4.5 °C
A93N,69 °C,4 °C
A93K,70.5 °C,5.5 °C
H126V,64.5 °C,-0.5 °C
H126Y,63.5 °C,-1.5 °C
T67Q,63.5 °C,-1.5 °C
T213D,62 °C,-3 °C
T213N,61.5 °C,-3.5 °C
K193L,65 °C,0 °C
A69H,64.5 °C,-0.5 °C
A69L,64.5 °C,-0.5 °C
A69M,62.5 °C,-2.5 °C
A69R,65.5 °C,0.5 °C
A69K,63.5 °C,-1.5 °C
V236I,66.5 °C,1.5 °C
T47S,64.5 °C,-0.5 °C
E61K,68.5 °C,3.5 °C
E61Q,66.5 °C,1.5 °C

Variant,Tm,"change of melting temperature, mutant - wild type (higher = more stable)"
E61R,64.5 °C,-0.5 °C
A158V,71 °C,6 °C
P253S,62.5 °C,-2.5 °C
P253G,64.5 °C,-0.5 °C
S228R,64.5 °C,-0.5 °C
S228K,64.5 °C,-0.5 °C
E56A,65 °C,0 °C
V199K,66.5 °C,1.5 °C
N113H,63 °C,-2 °C
N113Q,61.5 °C,-3.5 °C
E141Q,56 °C,-9 °C
S55P,65 °C,0 °C
A200Y,62.5 °C,-2.5 °C
K123H,65.5 °C,0.5 °C
V205L,63.5 °C,-1.5 °C
E64K,65 °C,0 °C
E64Q,66 °C,1 °C
E64A,66 °C,1 °C

# Reference: FireProtDB (doi:10.1093/protein/gzw068)
